Consider two proteins from article PMC7226451, “Half Way to Hypusine—Structural Basis for Substrate Recognition by Human Deoxyhypusine Synthase” (Biomolecules, 2020).

This data set concerns the molecule itself. In words: SEC-MALS; pure protein on XBridge BEH200 7.8 x 300 in 50 mM Tris 7.8, 200 mM NaCl, 5 mM β-ME, 1 mL/min; MALS with refractive index. Background: Size exclusion chromatography separates by hydrodynamic size, large species first.

B1: deoxyhypusine synthase (DHS), full-length, wild type (enzyme, human, UniProt P49366 1-369, looked up)
chain: MEGSLEREAPAGALAAVLKHSSTLPPESTQVRGYDFNRGVNYRALLEAFGTTGFQATNFGRAVQQVNAMIEKKLEPLSQDEDQHADLTQSRRPLTSCTIFLGYTSNLISSGIRETIRYLVQHNMVDVLVTTAGGVEEDLIKCLAPTYLGEFSLRGKELRENGINRIGNLLVPNENYCKFEDWLMPILDQMVMEQNTEGVKWTPSKMIARLGKEINNPESVYYWAQKNHIPVFSPALTDGSLGDMIFFHSYKNPGLVLDIVEDLRLINTQAIFAKCTGMIILGGGVVKHHIANANLMRNGADYAVYINTAQEFDGSDSGARPDEAVSWGKIRVDAQPVKVYADASLVFPLLVAETFAQKMDAFMHEKNED
modifications: Cys177 covalently modified to a β-mercaptoethanol (BME) adduct (seen in all crystal structures)
notes: human deoxyhypusine synthase, Uniprot P49366, residues 1-369; gene optimised for E. coli and synthesised; Cloned in pET24d (NcoI/BamHI) with an N-terminal 6xHis-tag and a TEV site; also called DHS wt; full length DHS; source: E. coli BL21(DE3), purified (HisTrap, TEV cleavage, reverse HisTrap, SEC); not shown: His6, N-terminal, cleaved
As usually defined, the stoichiometry N is the number of molecules, sites or subunits per partner or assembly. As for B1, the “stoichiometry N” value amounted to 4.

B2: truncated DHS Δ1-52 (domain or fragment, human, UniProt P49366 53-369, looked up)
chain: GFQATNFGRAVQQVNAMIEKKLEPLSQDEDQHADLTQSRRPLTSCTIFLGYTSNLISSGIRETIRYLVQHNMVDVLVTTAGGVEEDLIKCLAPTYLGEFSLRGKELRENGINRIGNLLVPNENYCKFEDWLMPILDQMVMEQNTEGVKWTPSKMIARLGKEINNPESVYYWAQKNHIPVFSPALTDGSLGDMIFFHSYKNPGLVLDIVEDLRLINTQAIFAKCTGMIILGGGVVKHHIANANLMRNGADYAVYINTAQEFDGSDSGARPDEAVSWGKIRVDAQPVKVYADASLVFPLLVAETFAQKMDAFMHEKNED
notes: human deoxyhypusine synthase, Uniprot P49366, residues 53-369 (lacks the N-terminal ball-and-chain motif, residues 1-52); Cloned in pET24d with an N-terminal 6xHis-tag and a TEV site; also called truncation mutant; source: E. coli BL21(DE3), purified (HisTrap, TEV cleavage, reverse HisTrap, SEC); not shown: His6, N-terminal, cleaved
Consider B2, for which the “stoichiometry N” value is 2.
